Test results reported in PMC3201865 (Nucleic Acids Research, 2011).

Biological target: recombinant full-length USP7 (UniProt Q93009 1-1102)
Test: co-IP

Chain of recombinant full-length USP7 (Q93009 whole entry): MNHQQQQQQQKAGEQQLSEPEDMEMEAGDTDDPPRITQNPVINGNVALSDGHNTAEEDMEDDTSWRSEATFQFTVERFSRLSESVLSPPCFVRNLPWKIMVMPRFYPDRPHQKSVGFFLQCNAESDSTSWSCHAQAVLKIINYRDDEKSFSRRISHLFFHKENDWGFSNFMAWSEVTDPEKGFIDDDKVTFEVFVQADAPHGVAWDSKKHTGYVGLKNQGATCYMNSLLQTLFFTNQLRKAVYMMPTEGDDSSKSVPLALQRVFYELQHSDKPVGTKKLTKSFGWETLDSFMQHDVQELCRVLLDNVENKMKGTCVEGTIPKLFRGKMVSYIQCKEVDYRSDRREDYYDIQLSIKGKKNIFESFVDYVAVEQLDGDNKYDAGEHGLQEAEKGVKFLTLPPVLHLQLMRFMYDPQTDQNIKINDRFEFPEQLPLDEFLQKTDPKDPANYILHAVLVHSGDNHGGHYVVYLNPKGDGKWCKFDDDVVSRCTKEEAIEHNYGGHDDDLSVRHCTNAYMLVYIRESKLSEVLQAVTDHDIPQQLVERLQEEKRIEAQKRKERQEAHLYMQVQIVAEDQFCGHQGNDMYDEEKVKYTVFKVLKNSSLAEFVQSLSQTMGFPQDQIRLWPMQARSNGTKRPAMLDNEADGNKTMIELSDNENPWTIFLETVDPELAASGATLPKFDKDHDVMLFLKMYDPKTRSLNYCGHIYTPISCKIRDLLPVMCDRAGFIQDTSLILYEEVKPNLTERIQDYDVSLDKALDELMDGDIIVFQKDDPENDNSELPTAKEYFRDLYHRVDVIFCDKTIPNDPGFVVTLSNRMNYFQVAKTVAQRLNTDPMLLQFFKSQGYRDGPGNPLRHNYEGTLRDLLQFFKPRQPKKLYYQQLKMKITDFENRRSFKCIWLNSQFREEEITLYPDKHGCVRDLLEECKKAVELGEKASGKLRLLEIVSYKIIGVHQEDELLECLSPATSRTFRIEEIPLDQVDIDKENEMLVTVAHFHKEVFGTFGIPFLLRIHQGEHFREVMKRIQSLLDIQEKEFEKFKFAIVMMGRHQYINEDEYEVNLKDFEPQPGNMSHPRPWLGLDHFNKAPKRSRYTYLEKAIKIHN

B1: recombinant full-length UHRF1 (natural protein)
chain: MWIQVRTMDGRQTHTVDSLSRLTKVEELRRKIQELFHVEPGLQRLFYRGKQMEDGHTLFDYEVRLNDTIQLLVRQSLVLPHSTKERDSELSDTDSGCCLGQSESDKSSTHGEAAAETDSRPADEDMWDETELGLYKVNEYVDARDTNMGAWFEAQVVRVTRKAPSRDEPCSSTSRPALEEDVIYHVKYDDYPENGVVQMNSRDVRARARTIIKWQDLEVGQVVMLNYNPDNPKERGFWYDAEISRKRETRTARELYANVVLGDDSLNDCRIIFVDEVFKIERPGEGSPMVDNPMRRKSGPSCKHCKDDVNRLCRVCACHLCGGRQDPDKQLMCDECDMAFHIYCLDPPLSSVPSEDEWYCPECRNDASEVVLAGERLRESKKKAKMASATSSSQRDWGKGMACVGRTKECTIVPSNHYGPIPGIPVGTMWRFRVQVSESGVHRPHVAGIHGRSNDGAYSLVLAGGYEDDVDHGNFFTYTGSGGRDLSGNKRTAEQSCDQKLTNTNRALALNCFAPINDQEGAEAKDWRSGKPVRVVRNVKGGKNSKYAPAEGNRYDGIYKVVKYWPEKGKSGFLVWRYLLRRDDDEPGPWTKEGKDRIKKLGLTMQYPEGYLEALANREREKENSKREEEEQQEGGFASPRTGKGKWKRKSAGGGPSRAGSPRRTSKKTKVEPYSLTAQQSSLIREDKSNAKLWNEVLASLKDRPASGSPFQLFLSKVEETFQCICCQELVFRPITTVCQHNVCKDCLDRSFRAQVFSCPACRYDLGRSYAMQVNQPLQTVLNQLFPGYGNGR
Q: Does B1 bind?
A: Result: binds
